Source: PMC10963238, “The bacterial division protein MinDE has an independent function in flagellation” (The Journal of Biological Chemistry, 2024)

Molecular target: T1, His-tagged cytoplasmic part of AtoS (232–608aa, cyto-AtoS) (Escherichia coli K-12, UniProt Q06067 232-608)
T1 construct: AtoS of Escherichia coli K-12, cytoplasmic part, residues 232-608; also called His-cyto-AtoS; His-AtoS; source: E. coli BL21 [DE3], purified (Ni2+-NTA agarose)
T1 sequence (looked up): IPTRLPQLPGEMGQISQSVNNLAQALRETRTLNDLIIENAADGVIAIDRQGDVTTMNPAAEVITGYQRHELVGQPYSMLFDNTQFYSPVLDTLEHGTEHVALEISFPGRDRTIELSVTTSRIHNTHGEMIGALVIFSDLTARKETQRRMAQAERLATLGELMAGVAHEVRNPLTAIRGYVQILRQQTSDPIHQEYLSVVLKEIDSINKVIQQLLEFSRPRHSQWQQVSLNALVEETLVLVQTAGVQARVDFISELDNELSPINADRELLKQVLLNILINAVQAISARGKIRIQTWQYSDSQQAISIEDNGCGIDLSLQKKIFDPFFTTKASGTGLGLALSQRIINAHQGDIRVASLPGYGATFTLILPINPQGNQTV
Assay: pull-down; GST-MinD (5 μM) with His-cyto-AtoS (5 μM) in 50 mM Hepes pH 7.4, 150 mM KCl, room temperature 30 min; His-cyto-AtoS held on HisPure cobalt resin, 1 h at 4 °C; washed with 20 mM imidazole, eluted with 300 mM imidazole; Western blot with anti-GST and anti-His
Details: both partners purified

B1: GST-MinD (natural protein, Escherichia coli K-12, UniProt P0AEZ3 1-270, looked up)
chain: MARIIVVTSGKGGVGKTTSSAAIATGLAQKGKKTVVIDFDIGLRNLDLIMGCERRVVYDFVNVIQGDATLNQALIKDKRTENLYILPASQTRDKDALTREGVAKVLDDLKAMDFEFIVCDSPAGIETGALMALYFADEAIITTNPEVSSVRDSDRILGILASKSRRAENGEEPIKEHLLLTRYNPGRVSRGDMLSMEDVLEILRIKLVGVIPEDQSVLRASNQGEPVILDINADAGKAYADTVERLLGEERPFRFIEEEKKGFLKRLFGG
notes: MinD of Escherichia coli K-12; ORF amplified from E. coli K-12 genomic DNA; also called GST-tagged MinD; source: dialyzed against 50 mM Hepes pH 7.4, 150 mM KCl, 10% glycerol
binding result: binds
